Key:
[1] = molecular target: human FAPα-His tag (Sino biological) (human) (UniProt Q12884); experiment: ELISA, coated human FAPα-His
[2] = molecular target: mouse FAPα-His protein (mouse) (UniProt P97321); experiment: ELISA, coated mouse FAPα-His
[3] = molecular target: human FAPα on CHO-K1-hFAPα cells (human) (UniProt Q12884); experiment: flow cytometry on CHO-K1-hFAPα cells
[4] = molecular target: human FAPα on CHO-K1-hFAPα cells (human) (UniProt Q12884); experiment: flow cytometry on CHO-K1-hFAPα cells (MFI of PE); set-up: unit not given beside the values
[5] = molecular target: human FAPα-His tag (Sino biological) (human) (UniProt Q12884); experiment: competitive ELISA on coated human FAPα; competitor (detected): FAP-G14-Bio
[6] = molecular target: human FAPα-His tag (Sino biological) (human) (UniProt Q12884); experiment: competitive ELISA on coated human FAPα; competitor (detected): FAP-G52-Bio
[7] = molecular target: human FAPα-His tag (Sino biological) (human) (UniProt Q12884); experiment: competitive ELISA on coated human FAPα; competitor (detected): FAP-I30-Bio
[8] = molecular target: human FAPα-His tag (Sino biological) (human) (UniProt Q12884); experiment: competitive ELISA on coated human FAPα; competitor (detected): FAP-I37-Bio
[9] = molecular target: human FAPα-His tag (Sino biological) (human) (UniProt Q12884); experiment: competitive ELISA on coated human FAPα; competitor (detected): FAP-I38-Bio
[10] = molecular target: human FAPα-His tag (Sino biological) (human) (UniProt Q12884); experiment: competitive ELISA on coated human FAPα; competitor (detected): FAP-J40-Bio
[11] = molecular target: human FAPα-His tag (Sino biological) (human) (UniProt Q12884); experiment: SPR (Biacore T200), mAb captured on Protein A chip, human FAPα-His as analyte
[12] = molecular target: human FAPα-His tag (Sino biological) (human) (UniProt Q12884); experiment: competitive ELISA on coated human FAPα; competitor (detected): FAPα (BMK)-Bio
[13] = molecular target: human FAPα-His tag (Sino biological) (human) (UniProt Q12884); experiment: competitive ELISA on coated human FAPα; biotinylated mAb alone, no competing Ab (row '0')

human FAPα-His tag (Sino biological) (human), sequence (Q12884 26-760 limits assumed): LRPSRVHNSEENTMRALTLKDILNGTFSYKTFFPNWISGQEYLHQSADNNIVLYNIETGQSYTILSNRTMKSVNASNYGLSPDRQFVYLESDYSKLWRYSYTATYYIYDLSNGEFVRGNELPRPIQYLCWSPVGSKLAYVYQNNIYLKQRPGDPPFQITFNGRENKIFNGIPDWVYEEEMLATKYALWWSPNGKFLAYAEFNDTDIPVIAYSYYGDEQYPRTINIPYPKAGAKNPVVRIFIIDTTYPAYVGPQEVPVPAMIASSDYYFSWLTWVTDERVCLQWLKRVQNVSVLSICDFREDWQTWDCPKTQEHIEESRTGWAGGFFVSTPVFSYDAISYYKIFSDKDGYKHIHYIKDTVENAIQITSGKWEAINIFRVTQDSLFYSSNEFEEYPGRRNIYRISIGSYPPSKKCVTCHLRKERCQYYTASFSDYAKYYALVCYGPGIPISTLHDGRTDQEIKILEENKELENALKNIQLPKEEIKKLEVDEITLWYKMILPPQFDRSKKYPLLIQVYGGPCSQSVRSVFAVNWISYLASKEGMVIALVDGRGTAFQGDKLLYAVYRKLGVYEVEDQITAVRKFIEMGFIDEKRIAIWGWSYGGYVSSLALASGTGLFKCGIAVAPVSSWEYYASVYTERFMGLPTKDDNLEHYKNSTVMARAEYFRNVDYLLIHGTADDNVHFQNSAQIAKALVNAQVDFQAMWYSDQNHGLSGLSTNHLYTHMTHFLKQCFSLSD
human FAPα on CHO-K1-hFAPα cells (human), sequence (Q12884 whole entry): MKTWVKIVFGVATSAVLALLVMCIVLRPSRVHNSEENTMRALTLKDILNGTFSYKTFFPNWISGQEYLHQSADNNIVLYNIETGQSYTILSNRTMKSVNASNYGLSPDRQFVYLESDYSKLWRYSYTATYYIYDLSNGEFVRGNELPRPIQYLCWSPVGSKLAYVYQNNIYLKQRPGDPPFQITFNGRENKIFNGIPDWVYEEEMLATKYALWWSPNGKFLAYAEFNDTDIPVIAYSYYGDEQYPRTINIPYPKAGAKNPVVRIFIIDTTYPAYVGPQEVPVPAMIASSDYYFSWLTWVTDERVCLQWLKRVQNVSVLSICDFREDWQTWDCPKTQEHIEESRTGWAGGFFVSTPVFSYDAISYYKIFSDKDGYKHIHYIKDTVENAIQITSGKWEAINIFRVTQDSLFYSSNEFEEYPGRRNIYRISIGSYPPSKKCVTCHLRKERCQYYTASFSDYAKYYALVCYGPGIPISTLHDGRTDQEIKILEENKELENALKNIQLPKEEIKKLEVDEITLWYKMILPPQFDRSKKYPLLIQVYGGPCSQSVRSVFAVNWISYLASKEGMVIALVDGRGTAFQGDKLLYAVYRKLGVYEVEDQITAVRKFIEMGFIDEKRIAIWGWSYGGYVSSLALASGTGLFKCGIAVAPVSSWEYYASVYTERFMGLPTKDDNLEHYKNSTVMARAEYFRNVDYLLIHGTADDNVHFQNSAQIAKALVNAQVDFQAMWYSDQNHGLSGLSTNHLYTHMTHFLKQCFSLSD
mouse FAPα-His protein (mouse), sequence (P97321 26-761 limits assumed): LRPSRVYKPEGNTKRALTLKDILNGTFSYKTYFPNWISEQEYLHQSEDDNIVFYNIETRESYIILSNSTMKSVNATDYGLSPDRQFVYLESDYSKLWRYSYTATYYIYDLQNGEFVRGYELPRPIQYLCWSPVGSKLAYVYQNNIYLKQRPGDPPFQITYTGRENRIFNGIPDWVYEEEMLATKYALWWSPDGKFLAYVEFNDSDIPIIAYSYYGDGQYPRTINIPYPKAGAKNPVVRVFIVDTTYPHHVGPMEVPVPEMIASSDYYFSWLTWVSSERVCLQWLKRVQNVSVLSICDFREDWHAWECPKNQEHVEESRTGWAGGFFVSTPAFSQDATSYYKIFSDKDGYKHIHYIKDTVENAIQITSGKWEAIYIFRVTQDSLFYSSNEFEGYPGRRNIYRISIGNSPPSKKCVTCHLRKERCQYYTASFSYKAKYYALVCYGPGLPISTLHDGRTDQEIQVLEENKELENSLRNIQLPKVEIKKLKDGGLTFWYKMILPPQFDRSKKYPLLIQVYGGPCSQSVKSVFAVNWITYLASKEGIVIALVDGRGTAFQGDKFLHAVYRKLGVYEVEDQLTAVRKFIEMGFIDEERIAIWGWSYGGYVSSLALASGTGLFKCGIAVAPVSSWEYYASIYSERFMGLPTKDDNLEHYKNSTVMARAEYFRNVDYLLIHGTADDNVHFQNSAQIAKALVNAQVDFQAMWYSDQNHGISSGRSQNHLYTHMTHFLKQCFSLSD

EC50 [1]: 5.55 ng/mL
EC50 [2]: 10.3 ng/mL
EC50 [3]: 0.043 ng/mL
Cmax [4]: 424
OD 450 nm [5]: 0.135 OD 450 nm
OD 450 nm [6]: 0.169 OD 450 nm
OD 450 nm [7]: 0.155 OD 450 nm
OD 450 nm [8]: 0.23 OD 450 nm
OD 450 nm [9]: 0.265 OD 450 nm
OD 450 nm [10]: 0.179 OD 450 nm
Kd [11]: 6.94 nM
koff [11]: 0.000208 s⁻¹
kon [11]: 30000 M⁻¹ s⁻¹
OD 450 nm [12]: 0.171 OD 450 nm
OD 450 nm [13]: 1.26 OD 450 nm
Substance: FAP-4B9 clone from Roche (FAPα-BMK) (antibody)

— patent publication US20250297032A1
